In patent US20140072613A1, “Compositions and Methods for Treating Cutaneous Scarring” (priority 2012, published 2014):

Experiments:
Assay in all cases: biochemical
Assay type in all cases: biochemical
266 human kinases [1] = target: 266 human kinases (Homo sapiens, UniProt P24723); details: PKGη(h); 100 μM
Summary of the method: (§1)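 Read-out by scintillation counting of radiolabelled, positively charged substrate bound to negatively charged filter; activity normalised to 100% control. Phosphate transferred from radiolabelled ATP.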

266 human kinases [2] = target: 266 human kinases (Homo sapiens, UniProt O96017, I157T); details: CHK2(I157T)(h); 100 μM
Summary of the method: as §1

266 human kinases [3] = target: T1, 266 human kinases (Homo sapiens, UniProt Q9BZL6); details: PKD2(h); 100 μM
T1 sequence (Q9BZL6 1-878): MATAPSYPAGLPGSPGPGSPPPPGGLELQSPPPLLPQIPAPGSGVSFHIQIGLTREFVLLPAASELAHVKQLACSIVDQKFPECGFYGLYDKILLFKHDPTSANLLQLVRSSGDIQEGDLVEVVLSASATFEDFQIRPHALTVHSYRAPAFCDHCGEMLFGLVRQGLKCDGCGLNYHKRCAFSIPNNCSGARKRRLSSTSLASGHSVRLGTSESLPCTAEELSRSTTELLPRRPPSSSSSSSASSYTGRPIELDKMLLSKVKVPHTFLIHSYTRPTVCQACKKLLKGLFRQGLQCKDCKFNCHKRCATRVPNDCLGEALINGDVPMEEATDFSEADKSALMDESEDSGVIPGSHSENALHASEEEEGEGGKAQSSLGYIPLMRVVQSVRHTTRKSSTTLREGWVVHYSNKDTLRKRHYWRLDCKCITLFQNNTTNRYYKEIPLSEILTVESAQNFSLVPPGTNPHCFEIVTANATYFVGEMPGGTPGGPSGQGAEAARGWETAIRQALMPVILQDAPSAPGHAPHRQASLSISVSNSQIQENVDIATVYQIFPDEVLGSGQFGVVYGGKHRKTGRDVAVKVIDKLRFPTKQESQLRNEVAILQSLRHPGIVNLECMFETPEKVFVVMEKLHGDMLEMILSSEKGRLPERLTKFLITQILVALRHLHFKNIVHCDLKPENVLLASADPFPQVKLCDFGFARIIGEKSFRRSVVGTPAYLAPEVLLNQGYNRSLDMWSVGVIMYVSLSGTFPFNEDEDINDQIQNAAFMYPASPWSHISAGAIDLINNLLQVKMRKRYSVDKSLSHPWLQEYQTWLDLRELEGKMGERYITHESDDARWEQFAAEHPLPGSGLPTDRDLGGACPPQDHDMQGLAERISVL
Summary of the method: as §1

266 human kinases [4] = target: 266 human kinases (Homo sapiens, UniProt P41240); details: CSK(h); 100 μM
Summary of the method: as §1

266 human kinases [5] = target: 266 human kinases (Homo sapiens, UniProt Q13177); details: PAK2(h); 100 μM
Summary of the method: as §1

266 human kinases [6] = target: 266 human kinases (Homo sapiens, UniProt P51617); details: IRAK1(h); 100 μM
Summary of the method: as §1

266 human kinases [7] = target: 266 human kinases (Homo sapiens, UniProt Q00535); details: 100 μM
Summary of the method: as §1

266 human kinases [8] = target: 266 human kinases (Homo sapiens, UniProt Q02763, Y897S); details: Tie2(Y897S)(h); 100 μM
Summary of the method: as §1

266 human kinases [9] = target: 266 human kinases (Homo sapiens, UniProt P12931); details: 100 μM
Summary of the method: as §1

266 human kinases [10] = target: T2, 266 human kinases (Homo sapiens, UniProt Q02156); details: PKCε(h); 100 μM
T2 sequence (Q02156 1-737): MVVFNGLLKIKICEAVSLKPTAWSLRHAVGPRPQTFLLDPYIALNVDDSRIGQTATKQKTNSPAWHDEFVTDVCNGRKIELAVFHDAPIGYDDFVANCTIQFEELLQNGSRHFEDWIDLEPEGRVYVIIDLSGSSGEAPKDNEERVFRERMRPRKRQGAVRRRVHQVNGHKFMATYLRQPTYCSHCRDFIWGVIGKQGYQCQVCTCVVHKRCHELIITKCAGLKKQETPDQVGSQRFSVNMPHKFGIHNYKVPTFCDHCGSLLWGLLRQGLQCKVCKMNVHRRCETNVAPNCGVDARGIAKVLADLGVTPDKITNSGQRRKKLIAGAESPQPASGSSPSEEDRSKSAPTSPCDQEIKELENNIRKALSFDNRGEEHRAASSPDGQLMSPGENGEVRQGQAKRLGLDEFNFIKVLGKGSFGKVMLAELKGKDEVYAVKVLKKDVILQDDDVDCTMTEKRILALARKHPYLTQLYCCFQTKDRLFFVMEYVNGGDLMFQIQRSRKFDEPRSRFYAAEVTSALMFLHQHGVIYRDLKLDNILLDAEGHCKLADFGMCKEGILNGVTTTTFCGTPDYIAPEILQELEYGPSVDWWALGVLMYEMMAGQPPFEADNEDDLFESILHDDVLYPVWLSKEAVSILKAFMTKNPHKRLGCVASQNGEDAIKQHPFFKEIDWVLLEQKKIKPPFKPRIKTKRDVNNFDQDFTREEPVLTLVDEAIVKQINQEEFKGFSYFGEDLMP
Summary of the method: as §1

266 human kinases [11] = target: 266 human kinases (Homo sapiens, UniProt Q04912); details: Ron(h); 100 μM
Summary of the method: as §1

266 human kinases (Homo sapiens, UniProt Q00535), sequence (Q00535 whole entry): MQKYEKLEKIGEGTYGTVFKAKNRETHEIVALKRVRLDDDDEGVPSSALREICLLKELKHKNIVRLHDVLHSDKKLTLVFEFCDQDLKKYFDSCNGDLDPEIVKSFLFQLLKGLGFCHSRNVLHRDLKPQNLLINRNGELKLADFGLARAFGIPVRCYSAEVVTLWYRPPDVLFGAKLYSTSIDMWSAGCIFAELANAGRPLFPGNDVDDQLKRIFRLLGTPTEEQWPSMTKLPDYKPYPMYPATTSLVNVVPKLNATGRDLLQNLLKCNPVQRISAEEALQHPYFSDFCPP
266 human kinases (Homo sapiens, UniProt P41240), sequence (P41240 whole entry): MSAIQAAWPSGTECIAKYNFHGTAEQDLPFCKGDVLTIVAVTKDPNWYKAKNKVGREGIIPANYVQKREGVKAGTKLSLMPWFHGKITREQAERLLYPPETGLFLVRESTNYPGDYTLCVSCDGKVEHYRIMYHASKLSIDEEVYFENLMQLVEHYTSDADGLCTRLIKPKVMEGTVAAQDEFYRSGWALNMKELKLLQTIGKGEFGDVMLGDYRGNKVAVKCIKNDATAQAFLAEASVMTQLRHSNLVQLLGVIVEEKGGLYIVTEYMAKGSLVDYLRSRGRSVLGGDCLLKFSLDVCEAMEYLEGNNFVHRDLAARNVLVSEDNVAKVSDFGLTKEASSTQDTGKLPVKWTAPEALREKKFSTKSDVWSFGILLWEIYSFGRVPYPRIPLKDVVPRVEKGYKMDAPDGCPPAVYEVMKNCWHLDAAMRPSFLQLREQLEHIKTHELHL
266 human kinases (Homo sapiens, UniProt Q13177), sequence (Q13177 whole entry): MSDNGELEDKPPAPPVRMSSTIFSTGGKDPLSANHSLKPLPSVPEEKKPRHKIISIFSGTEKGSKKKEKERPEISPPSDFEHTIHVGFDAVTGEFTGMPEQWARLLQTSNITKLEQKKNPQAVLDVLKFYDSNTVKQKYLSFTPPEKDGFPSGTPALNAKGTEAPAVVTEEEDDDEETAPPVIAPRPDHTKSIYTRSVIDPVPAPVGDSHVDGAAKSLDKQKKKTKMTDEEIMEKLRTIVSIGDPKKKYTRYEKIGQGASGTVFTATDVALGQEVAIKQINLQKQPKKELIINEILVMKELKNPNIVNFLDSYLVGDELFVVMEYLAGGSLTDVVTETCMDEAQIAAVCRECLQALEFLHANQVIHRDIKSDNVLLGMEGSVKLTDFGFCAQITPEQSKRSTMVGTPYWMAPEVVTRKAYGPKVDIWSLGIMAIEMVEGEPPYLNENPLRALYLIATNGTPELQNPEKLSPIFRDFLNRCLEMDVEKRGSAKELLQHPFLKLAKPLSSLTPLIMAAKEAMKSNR
266 human kinases (Homo sapiens, UniProt O96017, I157T), sequence (O96017 whole entry I157T): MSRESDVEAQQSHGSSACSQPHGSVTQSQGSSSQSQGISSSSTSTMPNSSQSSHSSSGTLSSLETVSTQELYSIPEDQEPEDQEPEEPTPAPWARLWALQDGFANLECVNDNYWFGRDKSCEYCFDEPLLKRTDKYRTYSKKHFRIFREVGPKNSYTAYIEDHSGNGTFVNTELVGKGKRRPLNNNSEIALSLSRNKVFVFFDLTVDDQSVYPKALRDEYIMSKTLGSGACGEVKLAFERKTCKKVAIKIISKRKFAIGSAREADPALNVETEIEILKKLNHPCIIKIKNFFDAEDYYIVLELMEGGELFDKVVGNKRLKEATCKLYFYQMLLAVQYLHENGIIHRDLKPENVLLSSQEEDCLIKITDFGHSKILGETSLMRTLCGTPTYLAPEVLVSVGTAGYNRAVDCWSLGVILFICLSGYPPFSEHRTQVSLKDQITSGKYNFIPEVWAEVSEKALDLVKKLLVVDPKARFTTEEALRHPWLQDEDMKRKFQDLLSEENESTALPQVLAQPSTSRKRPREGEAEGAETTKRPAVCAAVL
266 human kinases (Homo sapiens, UniProt P24723), sequence (P24723 whole entry): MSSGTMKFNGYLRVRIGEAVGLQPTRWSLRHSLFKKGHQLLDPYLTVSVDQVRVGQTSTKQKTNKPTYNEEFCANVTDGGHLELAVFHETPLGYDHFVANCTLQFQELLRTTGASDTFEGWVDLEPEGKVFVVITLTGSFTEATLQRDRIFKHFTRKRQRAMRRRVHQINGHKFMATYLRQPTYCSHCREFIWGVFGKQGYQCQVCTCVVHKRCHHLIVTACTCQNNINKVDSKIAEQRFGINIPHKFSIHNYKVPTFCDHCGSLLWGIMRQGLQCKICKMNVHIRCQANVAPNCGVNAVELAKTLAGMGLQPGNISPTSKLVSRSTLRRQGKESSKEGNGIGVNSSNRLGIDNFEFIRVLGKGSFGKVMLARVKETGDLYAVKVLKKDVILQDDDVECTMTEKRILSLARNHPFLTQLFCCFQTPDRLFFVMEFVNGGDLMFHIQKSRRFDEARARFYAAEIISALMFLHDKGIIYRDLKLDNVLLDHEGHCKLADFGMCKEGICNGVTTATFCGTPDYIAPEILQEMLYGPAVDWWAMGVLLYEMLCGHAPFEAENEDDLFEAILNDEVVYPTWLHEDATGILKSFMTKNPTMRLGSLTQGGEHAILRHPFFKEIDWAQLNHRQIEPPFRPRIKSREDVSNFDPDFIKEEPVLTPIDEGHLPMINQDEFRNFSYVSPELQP
266 human kinases (Homo sapiens, UniProt Q02763, Y897S), sequence (Q02763 23-1124 Y897S): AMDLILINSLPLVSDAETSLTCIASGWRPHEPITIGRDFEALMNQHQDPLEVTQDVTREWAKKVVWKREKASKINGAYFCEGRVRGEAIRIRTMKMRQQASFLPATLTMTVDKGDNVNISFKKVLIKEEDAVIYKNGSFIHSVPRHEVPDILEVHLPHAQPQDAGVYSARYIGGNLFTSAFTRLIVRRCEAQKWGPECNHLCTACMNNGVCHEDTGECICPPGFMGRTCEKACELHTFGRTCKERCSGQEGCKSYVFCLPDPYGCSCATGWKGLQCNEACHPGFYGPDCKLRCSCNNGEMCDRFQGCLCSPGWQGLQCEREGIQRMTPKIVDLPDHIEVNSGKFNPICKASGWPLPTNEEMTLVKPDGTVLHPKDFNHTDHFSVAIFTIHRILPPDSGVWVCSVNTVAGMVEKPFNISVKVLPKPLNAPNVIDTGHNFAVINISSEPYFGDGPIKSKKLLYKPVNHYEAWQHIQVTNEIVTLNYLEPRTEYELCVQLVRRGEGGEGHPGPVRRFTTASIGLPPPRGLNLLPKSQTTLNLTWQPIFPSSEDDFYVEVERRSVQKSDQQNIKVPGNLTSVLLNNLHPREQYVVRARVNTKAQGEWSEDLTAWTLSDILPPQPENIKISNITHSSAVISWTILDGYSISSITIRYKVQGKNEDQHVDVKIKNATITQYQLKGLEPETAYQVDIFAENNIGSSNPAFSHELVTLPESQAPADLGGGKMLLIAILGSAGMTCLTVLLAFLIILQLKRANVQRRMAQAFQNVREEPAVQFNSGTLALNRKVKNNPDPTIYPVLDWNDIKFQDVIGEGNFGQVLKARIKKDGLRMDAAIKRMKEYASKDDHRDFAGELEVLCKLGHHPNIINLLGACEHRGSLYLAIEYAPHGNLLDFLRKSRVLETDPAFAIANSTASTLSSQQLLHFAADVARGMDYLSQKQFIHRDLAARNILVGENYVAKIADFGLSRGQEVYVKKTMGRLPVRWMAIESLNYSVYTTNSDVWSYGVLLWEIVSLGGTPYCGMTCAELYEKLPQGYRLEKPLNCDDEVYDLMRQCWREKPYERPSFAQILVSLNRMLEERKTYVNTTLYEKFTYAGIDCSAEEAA
266 human kinases (Homo sapiens, UniProt P51617), sequence (P51617 whole entry): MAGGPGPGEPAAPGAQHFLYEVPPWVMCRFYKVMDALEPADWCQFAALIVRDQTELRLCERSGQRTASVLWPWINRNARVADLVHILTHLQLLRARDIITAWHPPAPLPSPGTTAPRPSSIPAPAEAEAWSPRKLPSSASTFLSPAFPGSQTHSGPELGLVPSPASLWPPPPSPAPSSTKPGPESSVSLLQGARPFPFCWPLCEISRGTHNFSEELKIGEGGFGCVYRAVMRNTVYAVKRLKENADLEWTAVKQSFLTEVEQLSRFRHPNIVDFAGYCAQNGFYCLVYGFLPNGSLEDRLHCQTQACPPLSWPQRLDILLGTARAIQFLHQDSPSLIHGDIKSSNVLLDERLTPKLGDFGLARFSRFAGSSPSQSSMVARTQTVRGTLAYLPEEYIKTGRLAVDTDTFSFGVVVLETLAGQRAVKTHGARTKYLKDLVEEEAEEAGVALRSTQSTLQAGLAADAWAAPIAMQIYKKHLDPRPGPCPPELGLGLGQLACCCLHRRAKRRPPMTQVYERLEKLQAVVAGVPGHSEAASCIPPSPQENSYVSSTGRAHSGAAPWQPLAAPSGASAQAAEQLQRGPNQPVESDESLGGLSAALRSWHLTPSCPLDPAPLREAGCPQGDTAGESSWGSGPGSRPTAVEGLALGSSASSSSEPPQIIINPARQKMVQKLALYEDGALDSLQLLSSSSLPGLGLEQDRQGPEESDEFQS

Sequence	% activity (266 human kinases [1])	% activity (266 human kinases [2])	% activity (266 human kinases [3])	% activity (266 human kinases [4])	% activity (266 human kinases [5])	% activity (266 human kinases [6])	% activity (266 human kinases [7]; CDK5/p25(h))	% activity (266 human kinases [7]; CDK5/p35(h))	% activity (266 human kinases [8])	% activity (266 human kinases [9]; Src(1-530)(h))	% activity (266 human kinases [9]; cSRC(h))	% activity (266 human kinases [10])	% activity (266 human kinases [11])
HRRIKAWLKKIKALARQLGVAA (mammal) [MMI-0500]	45%	3%	10%	2%	44%	5%	66%	59%	80%	21%	30%	23%	46%
YARAAARQARAKALNRQLGVA (mammal) [MMI-0200]	101%	85%	78%	33%	69%	101%	97%	92%	85%	75%	32%	98%	120%
